PMC10641069, “Intra- and inter-molecular regulation by intrinsically-disordered regions governs PUF protein RNA binding” (Nature Communications, 2023)
Several values for one entry are separate records, joined by “and”; a condition that tells them apart may be missing. Equal entries are not always repeated. Where two headings read alike, the source gives them in different places.

Key:
gld-1 FBEa RNA [1] = assay: Electrophoretic mobility shift assay (EMSA), RNA binding; set-up: species or system C. elegans
Protocol: A 3′-Cy5-labeled synthetic RNA was ordered from IDT (gld-1 FBEa, 5′-[…]-3′). The FBF-2 proteins were serially diluted 2-fold from the highest concentration of 10 µM in the buffer used for gel filtration (20 mM HEPES pH 7.4, 150 mM NaCl, and 0.5 mM TCEP). 10 µl of the serially diluted protein samples were mixed with 10 µl RNA (10 nM) in a 2× buffer of 10 mM HEPES pH 7.4, 0.01% (v/v) Tween 20, 0.1 mg/ml BSA, 0.1 mg/ml yeast tRNA, and 2 mM DTT. For experiments in the presence of LST-1, LST-1 proteins at constant concentration were preincubated with FBF-2 at 4 °C for 2 h. The LST-1 concentrations were chosen based on their Kd’s for interaction with FBF-2. The final FBF-2 concentrations ranged from 5000 nM to 0.6 nM, and the LST-1 A or B concentrations were constant at 150 μM or 50 μM, respectively. The protein-RNA mixtures were incubated at 4 °C overnight. The samples were resolved on 10% TBE polyacrylamide gels run at constant voltage (100 V) with 1× TBE buffer at room temperature for 35 min. The gels were scanned and visualized with a Typhoon FLA 9500 imager using the Cy5 channel (excitation wavelength 635 nm). Band intensities were quantified with ImageQuant 5.2 (Cytiva). The data were fit with GraphPad Prism (version 9.2.0) using nonlinear regression with a one-site specific binding model. Mean Kd’s and standard error of the mean (SEM) from three or more technical replicates are reported (Supplementary Table 4). Full scan images for the replicates shown in the main figures and gel images for all replicates are included in a source data file.

gld-1 FBEa RNA [2] = assay: Surface plasmon resonance, RNA-binding kinetics; set-up: species or system C. elegans
Protocol: Kinetics of FBF-2 binding to the gld-1 FBEa RNA were measured using a 2-channel OpenSPR instrument (Nicoya). A 3′-biotin-labeled synthetic RNA was ordered from Horizon Discovery (gld-1 FBEa, 5′-AUCAUGUGCCAUACA-biotin-3′). The 3′-biotinylated RNA was immobilized on streptavidin-treated biotin sensor chips (Nicoya). All experiments were performed at 20 °C with a buffer of 20 mM HEPES, pH 7.4, 150 mM NaCl, and 2 mM DTT. SPR data were collected using OpenSPR (Nicoya, version 4.3). FBF-2 proteins were injected with a flow rate of 20 µl/min. Data were obtained at five different protein concentrations (25, 50, 100, 200, and 400 nM for wild type RBD + CT; 12.5, 25, 50, 100, and 200 nM for RBD + CT mutants and wild type RBD). Sensor chips were regenerated using 0.05% or 0.1% (v/v) SDS. For each experiment, five binding curves were simultaneously fit using a 1:1 binding model with the TraceDrawer software (Ridgeview Instruments, version 1.9.1). Mean values and standard deviation were calculated from two technical replicates. Despite our efforts, the fit of the binding curves for the association phase of FBF-2 RBD and FBF-2 RBD + CT mutants is poorer than the fit for FBF-2 RBD + CT WT. The appearance of the curves is consistent with the derived kon and koff values, and importantly, the curve fit for the dissociation phase is better.

[3] = Melting temperature of FBF-2 proteins; format: physicochemical
Protocol: Mutants of FBF-2 RBD + CT: Y479A (5′-[…]), L610A (5′-[…]), and Loop6A (E592A, D594A, E597A, E599A, E604A, E605A; 5′-[…]) were generated by site-directed mutagenesis with the primers indicated. Plasmid sequences were verified by DNA sequencing (Azenta Life Sciences). Protein variants were expressed and purified like wild type proteins. Melting temperatures of wild type and mutant proteins were assessed by differential scanning […]. Reaction mixtures (total volume of 20 μl) contained ~0.3 mg/ml FBF-2 proteins and Sypro Orange dye (1:1000 dilution) (Sigma). Fluorescent intensity was collected from 25 °C to 95 °C (3 °C increment/min) with a real time PCR instrument (Applied Biosystems™ QuantStudio 7 Flex System) using excitation and emission wavelengths of 470 nm and 586 nm, respectively. Protein Thermal Shift^TM software (Applied Biosystems, version 1.4) was used to analyze protein melting curves and calculate melting temperatures (Tm).

LST-1 = settings: Y479A mutation; cited from earlier work
[4] = mean ± SD, two technical replicates, 20 °C, pH 7.4, 1:1 model

B1: FBF-2 RBD + CT Y479A: FBF-2 RBD + CT mutated in the R7-R8 loop (Y479A) (protein, UniProt Q09312 164-632, looked up, variant Y479A)
chain: SNNVLPTWSLDSNGEMRSRLSLSEVLDSGDLMKFAVDKTGCQFLEKAVKGSLTSYQKFQLFEQVIGRKDDFLKLSTNIFGNYLVQSVIGISLATNDDGYTKRQEKLKNFISSQMTDMCLDKFACRVIQSSLQNMDLSLACKLVQALPRDARLIAICVDQNANHVIQKVVAVIPLKNWEFIVDFVATPEHLRQICSDKYGCRVVQTIIEKLTADSMNVDLTSAAQNLRERALQRLMTSVTNRCQELATNEYANYIIQHIVSNDDLAVYRECIIEKCLMRNLLSLSQEKFASHVVEKAFLHAPLELLAEMMDEIFDGAIPHPDTGKDALDIMMFHQFGNYVVQCMLTICCDAVSGRRQTKEGGYDHAISFQDWLKKLHSRVTKERHRLSRFSSGKKMIETLANLRSTHPIYELQSSGHDSFKTDYFSTASEHDGPELEKNGIEEGSLMLEPRSNKSSVSVKFSSSGSHGDD
Kd (gld-1 FBEa RNA [1]): 36 nM and 39 nM and 47 nM | Kd (gld-1 FBEa RNA [1]; no LST-1, mean ± SEM of independent technical replicates (n = 3-5), 4 °C overnight, pH 7.4, Cy5-RNA 5′-AUCAUGUGCCAUAC-3′): 62 nM | Kd (gld-1 FBEa RNA [1]; no LST-1, replicate 1): 75 nM | Kd (gld-1 FBEa RNA [1]; no LST-1, replicate 2): 64 nM | Kd (gld-1 FBEa RNA [1]; no LST-1, replicate 3): 48 nM | Kd (gld-1 FBEa RNA [1]; pH 7.4): 41 ± 6 nM | Kd (gld-1 FBEa RNA [2]; derived from on/off rates, mean ± SD, two technical replicates): 12.9 ± 6.4 nM | koff (gld-1 FBEa RNA [2]; [4]): 1.18 ± 0.11 x10^-3 s^-1 | kon (gld-1 FBEa RNA [2]; [4]): 10.2 ± 4.3 x10^4 M^-1 s^-1 | Kd (gld-1 FBEa RNA [2]; replicate 1): 17.4 nM | kon (gld-1 FBEa RNA [2]; replicate 1): 71900 M⁻¹ s⁻¹ | koff (gld-1 FBEa RNA [2]; replicate 1, read-out: koff): 0.00125 s⁻¹ | Kd (gld-1 FBEa RNA [2]; replicate 2): 8.3 nM | kon (gld-1 FBEa RNA [2]; replicate 2): 133000 M⁻¹ s⁻¹ | koff (gld-1 FBEa RNA [2]; replicate 2, read-out: koff): 0.0011 s⁻¹ | thermal stability ([3]; in words, vs RBD alone or vs RBD + CT): decreased the thermal stability | Tm ([3]; mean ± SD, three technical replicates, ~0.3 mg/ml protein, Sypro Orange, 25 to 95 °C, fluorescence): 35.25 ± 0.05 °C | Tm ([3]; replicate 1): 35.30 °C | Tm ([3]; replicate 2): 35.30 °C | Tm ([3]; replicate 3): 35.16 °C | interaction with LST-1 (LST-1): disrupts interaction between FBF-2 and LST-1
